The source of these data is doi:10.1101/2023.10.23.563616.

Assay [1] addresses His-tagged TclI N-terminal domain (residues 1-85) (M. caseolyticus).
In assay [2] the target is a tagged version of TclJ or TclN. Kind of assay: pull-down; nickel copurification: TclI, TclJ and TclN all co-expressed in E. coli, one of them His6-tagged; lysate on Ni-NTA agarose beads, 4°C, 50 mM HEPES pH 7.8, 300 mM NaCl, 60 mM imidazole; SDS-PAGE with Coomassie stain.
Assay [3] has as its target N-terminally His-tagged TclI (M. caseolyticus). The experiment in a line: SEC; purified TclIJN complex (TclI, TclJ and TclN as a mixture); Yarra 1.8 μm X150 column, 100 mM sodium phosphate pH 6.8, 0.023% NaN3, 25 °C, 1 μg/μL. (In general: In gel filtration, larger molecules generally elute earlier.)

For “GST-TclE Δ18 leader truncation (peptide)”, in assay [1], the percentage of TclE peptides fully modified (six thiazoles) by LC-MS after co-expression of GST-TclE Δ18 with TclI, TclJ and TclN in E. coli was found to be 71.6%.

In turn, TclI (untagged) (natural protein) displayed a stoichiometry N (TclI per tagged enzyme (densitometry)) in assay [2] of 2 to 8.

In the case of TclJ (untagged) (enzyme), the stoichiometry N (TclI per TclJ) in assay [3] was found to be 2.

In the case of TclN (untagged) (enzyme), the stoichiometry N (TclI per TclN) in assay [3] came out at 2.
